Results taken from patent US20210290732A1, “GLP-1R and GCGR Agonists, Formulations, and Methods of Use” (Spitfire Pharma LLC, priority 2020, published 2021).
Values joined by “and” are separate entries in the source; they are usually repeats but may differ in a detail not shown here. Equal values may be shown once. “Also recorded” adds a separate entry of the source. Positions of bridges follow the written chain, without caps; N, C: chain ends. Non-standard residues stand in square brackets, D forms with d. No end group written: not given here. GC8 = D-glucoside-derived uronic acid with C8 alkyl chain; Aib = CC(C)(N)C(=O)O

How the values were obtained:
[1] = CMC of Polysorbate 20 in F58 buffer pH 7.7 with added ALT-801 by surface tensiometry; type: physicochemical
Text: CMC shifts are simply calculated as CMC in the presence of the ALT-801 less the CMC for the surfactant alone in solution.

[2] = clinical studies, cited from earlier work
[3] = in vitro stability in pooled human plasma; conditions: 1 to 10 μM; GLP-1 7-36 amide at 4 h, analogs at 8 h
Procedure: The stability test was carried out at Climax Laboratories, Inc. (San Jose, Calif.).

[4] = biological target: human glucagon-like peptide 1 receptor (GLP-1R) (human, UniProt P43220 24-463); assay: cell-based or functional assay
human glucagon-like peptide 1 receptor (GLP-1R), sequence (P43220 24-463): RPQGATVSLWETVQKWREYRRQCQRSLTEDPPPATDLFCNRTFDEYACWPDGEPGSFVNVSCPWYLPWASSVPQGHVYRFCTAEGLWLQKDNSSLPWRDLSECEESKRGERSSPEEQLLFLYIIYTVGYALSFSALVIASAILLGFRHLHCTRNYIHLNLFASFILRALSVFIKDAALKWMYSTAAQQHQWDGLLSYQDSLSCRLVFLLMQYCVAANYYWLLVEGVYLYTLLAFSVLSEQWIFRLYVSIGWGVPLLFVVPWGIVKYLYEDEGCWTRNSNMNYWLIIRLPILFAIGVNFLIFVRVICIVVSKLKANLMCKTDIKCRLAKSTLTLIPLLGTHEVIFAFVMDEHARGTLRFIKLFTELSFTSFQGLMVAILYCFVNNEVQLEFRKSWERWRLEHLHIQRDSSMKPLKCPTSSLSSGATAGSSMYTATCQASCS

[5] = biological target: human glucagon receptor (GCGR) (human, UniProt P47871 26-477); assay: cell-based or functional assay
[6] = biological target: bovine serum albumin (BSA) (bovine, UniProt P02769 25-607); assay: method not stated (data not shown)
bovine serum albumin (BSA), sequence (P02769 25-607 limits assumed): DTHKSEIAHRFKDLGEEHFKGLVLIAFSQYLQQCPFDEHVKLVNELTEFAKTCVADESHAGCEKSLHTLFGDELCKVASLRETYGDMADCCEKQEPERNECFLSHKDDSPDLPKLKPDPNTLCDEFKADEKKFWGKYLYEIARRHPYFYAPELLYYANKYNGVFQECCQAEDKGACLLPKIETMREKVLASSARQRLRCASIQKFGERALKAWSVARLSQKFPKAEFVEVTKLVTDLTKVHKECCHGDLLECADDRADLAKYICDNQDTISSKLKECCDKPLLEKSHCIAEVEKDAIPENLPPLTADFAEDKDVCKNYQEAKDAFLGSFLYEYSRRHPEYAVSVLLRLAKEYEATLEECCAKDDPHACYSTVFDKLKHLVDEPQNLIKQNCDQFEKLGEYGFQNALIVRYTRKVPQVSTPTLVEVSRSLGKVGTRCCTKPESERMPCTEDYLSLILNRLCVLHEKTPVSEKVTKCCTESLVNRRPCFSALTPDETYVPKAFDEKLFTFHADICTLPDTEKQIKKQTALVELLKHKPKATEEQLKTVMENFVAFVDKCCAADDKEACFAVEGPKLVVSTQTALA

[7] = biological target: plasma proteins of dog; assay: ultracentrifugation of spiked plasma (15000 ng/mL), 37 C, 6 h, LC-MS of supernatant; supernatant value BLQ, extrapolated
[8] = biological target: plasma proteins of human; assay: as above
[9] = biological target: plasma proteins of monkey; assay: ultracentrifugation of spiked plasma (15000 ng/mL), 37 C, 6 h, LC-MS of supernatant
[10] = biological target: plasma proteins of dog; assay: as above
[11] = biological target: plasma proteins of human; assay: as above
[12] = biological target: plasma proteins of rat; assay: as above

With Polysorbate 20 as the molecule, how does the “Polysorbate 20 CMC Value, No ALT-801, Average” value [1] read?
The value was 0.722 mg/mL.

And the “Polysorbate 20 CMC Value, No ALT-801” value ([1]; Test # 1 and 2)?
The value was 0.721 mg/mL and 0.722 mg/mL.

Which results are given for `CCCCCCCCCCCCCCCC(=O)N[C@@H](CCC(=O)NCCCC[C@H](NC(=O)[C@H](CC(=O)O)NC(=O)[C@H](CO)NC(=O)[C@@H](NC(=O)[C@H](Cc1ccccc1)NC(=O)[C@@H](NC(=O)CNC(=O)[C@H](CCC(N)=O)NC(=O)[C@H](CO)NC(=O)[C@@H](N)Cc1c[nH]cn1)[C@@H](C)O)[C@@H](C)O)C(=O)N[C@@H](CO)C(=O)N[C@@H](CCC(=O)O)C(=O)N[C@@H](Cc1ccc(O)cc1)C(=O)N[C@@H](CC(C)C)C(=O)N[C@@H](CC(=O)O)C(=O)N[C@@H](CO)C(=O)N[C@@H](CCC(=O)O)C(=O)N[C@@H](CCCNC(=N)N)C(=O)N[C@@H](C)C(=O)N[C@@H](CCCNC(=N)N)C(=O)N[C@@H](CC(=O)O)C(=O)N[C@@H](Cc1ccccc1)C(=O)N[C@H](C(=O)N[C@@H](C)C(=O)N[C@@H](Cc1c[nH]c2ccccc12)C(=O)N[C@@H](CC(C)C)C(=O)N[C@@H](CCC(=O)O)C(=O)N[C@@H](C)C(=O)NCC(=O)NCC(=O)O)C(C)C)C(=O)O` [cotadutide]?
reduction in liver fat content ([2]; 6 weeks): 39%; weight loss over 26 weeks [2]: 5.4%

Which “stability in pooled human plasma (compound level remaining)” value [3] does the source give for `CC[C@H](C)[C@H](NC(=O)[C@H](Cc1ccccc1)NC(=O)[C@H](CCC(=O)O)NC(=O)[C@H](CCCCN)NC(=O)[C@H](C)NC(=O)[C@H](C)NC(=O)[C@H](CCC(N)=O)NC(=O)CNC(=O)[C@H](CCC(=O)O)NC(=O)[C@H](CC(C)C)NC(=O)[C@H](Cc1ccc(O)cc1)NC(=O)[C@H](CO)NC(=O)[C@H](CO)NC(=O)[C@@H](NC(=O)[C@H](CC(=O)O)NC(=O)[C@H](CO)NC(=O)[C@@H](NC(=O)[C@H](Cc1ccccc1)NC(=O)[C@@H](NC(=O)CNC(=O)[C@H](CCC(=O)O)NC(=O)[C@H](C)NC(=O)[C@@H](N)Cc1c[nH]cn1)[C@@H](C)O)[C@@H](C)O)C(C)C)C(=O)N[C@@H](C)C(=O)N[C@@H](Cc1c[nH]c2ccccc12)C(=O)N[C@@H](CC(C)C)C(=O)N[C@H](C(=O)N[C@@H](CCCCN)C(=O)NCC(=O)N[C@@H](CCCNC(=N)N)C(N)=O)C(C)C` [GLP-1 7-36 amide] here?
Its value is “rapidly destroyed to below quantitation limit; also recorded: rapid destruction”.

Which “EC50 (pM) hGLP-1R, cAMP accumulation, 0.1% BSA” value [4] does the source give for H[Aib]QGTFTSDYSKYLDEQAAKEFIK(GC8)WLLQT-NH2 (lactam 16-20) [Analogue 1 (SEQ ID NO: 12)] here?
The value was 8 pM.

What about the “EC50 (pM) hGCGR, cAMP accumulation, 0.1% BSA” value [5] of the same molecule?
The value was 20 pM.

B1: EU-A1873 (SEQ ID NO: 1) (peptide)
peptide: HXQGTFTSDYSKYLDEKAAKEFIQWLLQT
modifications: Aib at 2; side chain lactam between Glu16 and Lys20; Lys17 acylated with Z17CO2H / GC18c (1-(17-carboxyheptadecyloxy) beta-D-glucuronyl); C-terminal amide (NH2)
notes: Synthetic 29-residue peptide amide; also called ALT-801; analogue 17
With B1 as the molecule, how does the “percent bound to BSA” value [6] read?
The value was greater than 99%.

And the Percentage of ALT-801 Bound [7]?
Its Percentage of ALT-801 Bound is 99.9%.

What about the Percentage of ALT-801 Unbound [7] of the same molecule?
The Percentage of ALT-801 Unbound was 0.126%.

What about the Percentage of ALT-801 Bound [8] of the same molecule?
Its Percentage of ALT-801 Bound is 99.9%.

What about the Percentage of ALT-801 Unbound [8] of the same molecule?
Its Percentage of ALT-801 Unbound is 0.117%.

What about the Percentage of ALT-801 Bound [9] of the same molecule?
The Percentage of ALT-801 Bound was 100%.

And the Percentage of ALT-801 Bound, Mean [9]?
Its Percentage of ALT-801 Bound, Mean is 100%.

And the Percentage of ALT-801 Unbound, Mean [9]?
Its Percentage of ALT-801 Unbound, Mean is 0.0487%.

What about the Percentage of ALT-801 Bound [10] of the same molecule?
Its Percentage of ALT-801 Bound is 99.7% and 99.8%.

What about the Percentage of ALT-801 Bound, Mean [10] of the same molecule?
Its Percentage of ALT-801 Bound, Mean is 99.8%.

What about the Percentage of ALT-801 Unbound [10] of the same molecule?
Its Percentage of ALT-801 Unbound is 0.265% and 0.223%.

And the Percentage of ALT-801 Unbound, Mean [10]?
Its Percentage of ALT-801 Unbound, Mean is 0.205%.

And the Percentage of ALT-801 Bound [11]?
The Percentage of ALT-801 Bound was 99.7%.

And the Percentage of ALT-801 Bound, Mean [11]?
The Percentage of ALT-801 Bound, Mean was 99.8%.

What about the Percentage of ALT-801 Unbound [11] of the same molecule?
Its Percentage of ALT-801 Unbound is 0.309%.

What about the Percentage of ALT-801 Unbound, Mean [11] of the same molecule?
The Percentage of ALT-801 Unbound, Mean was 0.213%.

And the Percentage of ALT-801 Bound [12]?
The Percentage of ALT-801 Bound was 99.7% and 99.8%.

What about the Percentage of ALT-801 Bound, Mean [12] of the same molecule?
The Percentage of ALT-801 Bound, Mean was 99.8%.

And the Percentage of ALT-801 Unbound [12]?
Its Percentage of ALT-801 Unbound is 0.334% and 0.204% and 0.184%.

And the Percentage of ALT-801 Unbound, Mean [12]?
Its Percentage of ALT-801 Unbound, Mean is 0.241%.
